From PMC7116876, “Mechanistic Insights into Regulation of the ALC1 Remodeler by the Nucleosome Acidic Patch” (Cell reports, 2020)
One block for each substance: values may come before it.

Tests used:
[1] = target: WT/WT nucleosome (Xenopus laevis histone octamer with intact acidic patches on Widom 601 DNA) (Xenopus laevis)
[2] = target: WT/WT nucleosome (Xenopus laevis histone octamer with intact acidic patches on Widom 601 DNA) (Xenopus laevis); remark: listed apart in the source
[3] = target: ALC1^RLS peptide-TAMRA (human); assay: fluorescence polarisation; fluorescence anisotropy; 10 nM TAMRA-labelled peptide, nucleosomes without linker DNA titrated; 30°C; 15 mM HEPES pH 7.5, 1 mM EDTA, 5% glycerol, 1 mM DTT; quadratic fit
[4] = target: WT/WT nucleosome (Xenopus laevis histone octamer with intact acidic patches on Widom 601 DNA) (Xenopus laevis); assay: cryo-EM structure; biotinylated ALC1 linker peptide at 10-fold molar excess over core nucleosomes (no linker DNA), cross-linked with 0.05% glutaraldehyde, purified on monomeric avidin; 15 mM HEPES pH 7.5, 50 mM NaCl, 1 mM DTT
[5] = test system: T1, ALC1RLS peptide-TAMRA (Homo sapiens); assay: fluorescence anisotropy; conditions: Fluorescence anisotropy: 15 mM HEPES pH 7.5, 1 mM EDTA, 5% glycerol, 1 mM DTT, 10 nM peptide, 30 C
T1 sequence: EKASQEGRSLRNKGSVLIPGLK

Michaelis constant of remodeling of WT/WT nucleosomes (10 nM); factor of increase against ALC1^fl R860W [1]: 5.3 fold | maximum rate of remodeling of WT/WT nucleosomes (10 nM); factor of decrease against ALC1^fl R860W [1]: 6.4 fold | nucleosome-stimulated ATPase rate under saturating conditions (Vmax estimated); fold reduction against ALC1^fl R860W [1]: 2 fold | nucleosome-stimulated ATPase rate, 20 μM remodeler, 2 μM WT/WT nucleosomes; fold reduction against ALC1^fl R860W [1]: 2.5 fold | smFRET, average translocation pause duration on WT/WT nucleosomes with 3 bp of linker DNA; fold increase against ALC1^fl R860W [2]: > 4 fold
Substance: ALC1^fl R611A/S612A/R860W (human ALC1 16-879) (from UniProt Q86WJ1 16-879) (enzyme)

Kd [3]: 1100 nM
Substance: WT/WT nucleosome (Xenopus laevis histone octamer with intact acidic patches on Widom 601 DNA) (complex)

stoichiometry N (peptides per nucleosome) [4]: 2
Substance: ALC1 linker peptide-Biotin

Substance: WT/WT nucleosome 0-601-0
Kd [5]: 1100 nM
